The target of assay [1] is T1, mouse CRY2 (amino acids 1–512) (mouse, UniProt Q9R194 1-512).
T1 construct: Cryptochrome 2 (CRY2), mouse, residues 1-512, photolyase-homology region (PHR); also called CRY2-PHR; mCRY2
T1 sequence (looked up): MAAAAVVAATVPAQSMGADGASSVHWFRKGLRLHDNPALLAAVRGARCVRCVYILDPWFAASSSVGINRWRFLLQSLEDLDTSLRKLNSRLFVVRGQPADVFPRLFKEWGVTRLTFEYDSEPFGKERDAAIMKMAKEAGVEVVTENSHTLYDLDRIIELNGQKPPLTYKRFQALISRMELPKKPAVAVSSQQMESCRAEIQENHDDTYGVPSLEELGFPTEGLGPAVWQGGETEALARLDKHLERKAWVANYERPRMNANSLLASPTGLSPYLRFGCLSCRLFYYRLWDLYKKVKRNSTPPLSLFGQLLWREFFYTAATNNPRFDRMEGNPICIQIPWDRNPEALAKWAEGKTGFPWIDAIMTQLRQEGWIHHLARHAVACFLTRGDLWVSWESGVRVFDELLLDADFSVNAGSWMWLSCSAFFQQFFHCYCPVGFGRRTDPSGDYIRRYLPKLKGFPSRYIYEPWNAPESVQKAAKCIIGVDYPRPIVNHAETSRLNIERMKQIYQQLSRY
Description: crystal structure; complex of purified CRY2 (1–512) and PER2 (1095–1215); crystals grown at 4°C, hanging drop, 100 mM HEPES pH 7.5, 200 mM NaCl, 15% PEG 3350; 2.8 Å. The note with it: both partners purified.

Assay [2] concerns the target T1, mouse CRY2 (amino acids 1–512). Description: pull-down; GST-PER2 immobilised on glutathione beads, CRY2-PHR incubated at 4°C for 1 hr; SDS-PAGE, Coomassie stain. The conditions noted are these: both partners purified.

B1: murine PER2 (amino acids 1095–1215) (domain or fragment, mouse, UniProt O54943 1095-1215, looked up)
chain: SSDTSHTSKYFGSIDSSENNHKAKMIPDTEESEQFIKYVLQDPIWLLMANTDDSIMMTYQLPSRDLQAVLKEDQEKLKLLQRSQPRFTEGQRRELREVHPWVHTGGLPTAIDVTGCVYCES
notes: also called PER2-CBD
Regarding B1, the binding result in assay [1] is listed as “binds”.

B2: GST-tagged mPER2 WT (amino acids 1095–1215) (domain or fragment, mouse, UniProt O54943 1095-1215, looked up)
chain: B1 chain
notes: also called WT PER2-CBD; GST-PER2; source: E. coli, purified
As for B2, the binding result in assay [2] was “binds”.

Values taken from publication PMC4157330, “Molecular assembly of the period-cryptochrome circadian transcriptional repressor complex” (eLife, 2014).
